The source of these data is patent publication US20120014950A1 (Xencor, published 2012).

Changes are numbered by the printed parent chain.

The target in experiment [1] is T1, human DR3-Fc fusion protein (human, UniProt Q93038 25-199).
T1 construct: also called hDR3-Fc; not shown: Fc portion
T1 sequence: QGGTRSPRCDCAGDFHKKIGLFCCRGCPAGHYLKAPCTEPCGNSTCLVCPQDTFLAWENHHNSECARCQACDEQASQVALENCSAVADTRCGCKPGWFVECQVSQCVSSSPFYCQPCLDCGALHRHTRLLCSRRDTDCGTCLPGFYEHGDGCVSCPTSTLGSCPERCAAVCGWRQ
Nature of the experiment: BIAcore SPR; human DR3-Fc amine-coupled to CM5 chip, Fab in flow; ratio of average Kd. As to the method:
(§1) Briefly, target proteins are covalently immoblilzed to the BIAcore CM5 sensor chip (Cat #BR-1000-14 (Biacore Life Sciences, Piscataway, N.J.)) via amine groups using N-ethyl-N′-(dimethylaminopropyl) carbodilimide/N-hydroxysuccinimide chemistry. Empty flow cells can be used as controls negative for target binding and for background subtraction. Six different concentrations of antibody molecules (range 0 to 50 nM) are flowed over the polypeptide-derivatized flow cells at 15 μL1/min for a total volume of 50 μl. The amount of bound protein is determined during washing of the flow cell with HBS buffer (10 mM HEPES [pH 7.4], 150 mM NaCl, 3.4 mM EDTA, and 0.005% Surfactant P20). The flow cell surface is regenerated by displacing bound protein by washing with 20 μl of 10 mM glycine-HCL (pH 2.3). For kinetic analysis, the on and off rates are determined using the kinetic evaluation program in BIAevaluation 3 software using a 1:1 binding model and the global analysis method.
(§2) In order to confirm that the humanized variant antibodies were capable of binding to the extracellular domain of DR3, the Kd values of eight humanized Fab variants were determined by BIAcore assay. In this experiment, a human DR3-Fc fusion protein was covalently immoblilzed to the BIAcore CM5 sensor chip. Empty flow cells that were negative for anti-DR3-Fab binding were used for background subtraction.
For orientation: Surface plasmon resonance follows binding to a sensor surface in real time, without labels.

Experiment [2] deals with T1, human DR3-Fc fusion protein. Nature of the experiment: BIAcore SPR; human DR3-Fc amine-coupled to CM5 chip, Fab in flow; 1:1 model; average of n=2. As for the experimental part:
as §1, §2

For experiment [3], the target named is T2, human DR3 receptor expressed on the cell surface (human, UniProt Q93038 25-417).
T2 construct: also called hDR3; TNFRSF25
T2 sequence: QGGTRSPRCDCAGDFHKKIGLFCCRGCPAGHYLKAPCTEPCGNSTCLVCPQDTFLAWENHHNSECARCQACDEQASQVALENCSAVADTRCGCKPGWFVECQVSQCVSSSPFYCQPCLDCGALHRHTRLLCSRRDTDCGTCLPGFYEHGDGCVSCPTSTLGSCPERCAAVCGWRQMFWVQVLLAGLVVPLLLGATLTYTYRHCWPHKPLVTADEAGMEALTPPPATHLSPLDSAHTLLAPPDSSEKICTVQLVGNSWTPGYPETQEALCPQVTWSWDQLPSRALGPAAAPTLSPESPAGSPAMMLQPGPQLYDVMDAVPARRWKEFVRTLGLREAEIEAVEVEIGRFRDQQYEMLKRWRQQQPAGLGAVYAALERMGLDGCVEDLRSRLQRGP
Nature of the experiment: Flow cytometry on HEK293F cells transiently expressing human DR3. 1 ug/mL human TL1A, detected with anti-TL1A-biotin polyclonal antibody and streptavidin-PE. No competitor. As for the experimental part:
FIG. 4. Flow cytometry results of 11H08 binding to hDR3-expressing HEK293F cells. HEK293F cells transiently expressing human DR3 were used to test the ability of the whole 11H08 immunoglobulin molecule to inhibit human TL1A binding to DR3 (See, Example 2). HEK293F cells were incubated with 1 μg/mL of human TL1A in the presence of either an unrelated antibody (mIgG1) as an isotype control (known not to bind TL1A or DR3) or 11H08. […] The upper panels show binding of labeled TL1A either by itself or in the presence of an unrelated antibody (mIgG1).
The anti-DR3 monoclonal antibody 11H08 was assayed for its ability to inhibit human TL1A binding to human DR3 using techniques known to those skilled in the art. Briefly, HEK293F cells transiently expressing human DR3 were incubated with 1 μg/mL of human TL1A in the presence of either an unrelated antibody (mIgG1) as an isotype control that was known not to bind TL1A or DR3, or an anti-DR3 monoclonal antibody (11H08), for 20 minutes at room temperature. Binding was detected using an anti-TL1A-biotin polyclonal antibody followed by Streptavidin PE. The ability of the anti-DR3 monoclonal antibody to inhibit binding of TL1A to DR3 was measured by flow cytometry.
In general terms: In flow cytometry, cells or beads pass a laser one at a time.

The target in experiment [4] is T1, human DR3-Fc fusion protein. Nature of the experiment: BIAcore SPR; human DR3-Fc amine-coupled to CM5 chip, Fab-HSA in flow; ratio of average Kd. As for the experimental part:
as §1
(§3) Additionally, H1L2-Fab and H5L2-Fab were fused to human serum albumin (See, Example 6) and similarly tested. The Kd values of H0L0-Fab-HSA, H1L2-Fab-HSA, and H5L2-Fab-HSA were determined by BIAcore analysis as described above.

For experiment [5] the target is unchanged. Nature of the experiment: BIAcore SPR; human DR3-Fc amine-coupled to CM5 chip, Fab-HSA in flow; 1:1 model; average of n=2. As for the experimental part:
as §1, §3

B1: H0L0-Fab (Fab, V domains shown)
VH: EVMLVESGGGLVKPGGSLKLSCAASGFTFTNYAMSWVRQTPEKRLEWVATITSGGSYIYYLDSVKGRFTISRDNAKSTLYLQMSSLRSEDTAIYNCARRKDGNYYYAMDYWGQGTSVTVSS
VL: DIVLTQSPASLAVSLGQRATISCRASESVDSYGNSFIHWYQQKAGQPPKLLIYRASNLESGIPARFSGSGSRTDFTLTINPVEADDVATYYCQQSYEDPWTFGGGTKLEIKR
notes: also called 11H08-Fab; parental anti-DR3 molecule
In general, Kd refers to the free concentration of one partner at which half of the binding sites on the other are occupied at equilibrium, for simple one-to-one binding. Low readings indicate tighter binding, high ones weaker binding. Consider B1, for which the “Ratio of binding relative to H0L0-Fab” value in experiment [1] came out at 1. Besides, in experiment [2], binding was put at a Kd of 1.37 nM.

B2: H0.1L0-Fab (Fab, V domains shown)
VH: B1 VH with N95Y
VL: B1 VL
B2: the “Ratio of binding relative to H0L0-Fab” value in experiment [1] was found to be 1.09. The Kd in experiment [2] was 1.5 nM.

B3: human TL1A (ligand, UniProt O95150 72-251, looked up)
chain: LKGQEFAPSHQQVYAPLRADGDKPRAHLTVVRQTPTQHFKNQFPALHWEHELGLAFTKNRMNYTNKFLLIPESGDYFIYSQVTFRGMTSECSEIRQAGRPNKPDSITVVITKVTDSYPEPTQLLMGTKSVCEVGSNWFQPIYLGAMFSLQEGDKLMVNVSDISLVDYTKEDKTFFGAFLL
notes: also called hTL1A; TNFSF15
Turning to B3, the binding result in experiment [3] is “binds”.

B4: H1L2-Fab-HSA (Fab)
heavy: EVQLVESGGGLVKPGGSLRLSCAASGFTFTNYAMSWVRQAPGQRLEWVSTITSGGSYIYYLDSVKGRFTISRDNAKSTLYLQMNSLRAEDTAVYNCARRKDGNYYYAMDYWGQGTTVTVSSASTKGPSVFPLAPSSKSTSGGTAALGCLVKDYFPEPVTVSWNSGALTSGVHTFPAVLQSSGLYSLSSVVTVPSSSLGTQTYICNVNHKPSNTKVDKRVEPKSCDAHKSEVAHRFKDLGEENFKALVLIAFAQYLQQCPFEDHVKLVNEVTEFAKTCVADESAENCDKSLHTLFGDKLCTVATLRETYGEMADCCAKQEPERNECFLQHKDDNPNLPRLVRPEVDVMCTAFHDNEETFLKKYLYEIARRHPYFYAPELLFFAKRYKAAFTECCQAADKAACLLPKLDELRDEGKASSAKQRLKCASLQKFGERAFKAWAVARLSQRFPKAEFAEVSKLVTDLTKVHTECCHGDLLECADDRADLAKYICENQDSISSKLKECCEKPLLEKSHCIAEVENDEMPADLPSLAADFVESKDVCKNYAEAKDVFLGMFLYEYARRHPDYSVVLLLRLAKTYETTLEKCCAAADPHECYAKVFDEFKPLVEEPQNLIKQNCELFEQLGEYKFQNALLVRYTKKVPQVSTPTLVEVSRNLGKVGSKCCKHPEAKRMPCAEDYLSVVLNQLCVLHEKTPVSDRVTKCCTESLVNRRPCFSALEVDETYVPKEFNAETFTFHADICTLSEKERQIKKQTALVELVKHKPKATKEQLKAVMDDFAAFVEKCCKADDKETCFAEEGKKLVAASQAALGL
light: DIVLTQSPSSLSASVGDRVTITCRASESVDSYGNSFIHWYQQKPGQPPKLLIYRASNLESGIPARFSGSGSRTDFTLTISSLQPEDFATYYCQQSYEDPWTFGGGTKLEIKRTVAAPSVFIFPPSDEQLKSGTASVVCLLNNFYPREAKVQWKVDNALQSGNSQESVTEQDSKDSTYSLSSTLTLSKADYEKHKVYACEVTHQGLSSPVTKSFNRGEC
notes: also called AB13350-C1
As to B4, in experiment [4], the “Ratio of binding relative to H0L0-Fab” value was found to be 0.6. Moreover, the Kd in experiment [5] amounted to 3.06 nM.

B5: H5L2-Fab-HSA (Fab)
heavy: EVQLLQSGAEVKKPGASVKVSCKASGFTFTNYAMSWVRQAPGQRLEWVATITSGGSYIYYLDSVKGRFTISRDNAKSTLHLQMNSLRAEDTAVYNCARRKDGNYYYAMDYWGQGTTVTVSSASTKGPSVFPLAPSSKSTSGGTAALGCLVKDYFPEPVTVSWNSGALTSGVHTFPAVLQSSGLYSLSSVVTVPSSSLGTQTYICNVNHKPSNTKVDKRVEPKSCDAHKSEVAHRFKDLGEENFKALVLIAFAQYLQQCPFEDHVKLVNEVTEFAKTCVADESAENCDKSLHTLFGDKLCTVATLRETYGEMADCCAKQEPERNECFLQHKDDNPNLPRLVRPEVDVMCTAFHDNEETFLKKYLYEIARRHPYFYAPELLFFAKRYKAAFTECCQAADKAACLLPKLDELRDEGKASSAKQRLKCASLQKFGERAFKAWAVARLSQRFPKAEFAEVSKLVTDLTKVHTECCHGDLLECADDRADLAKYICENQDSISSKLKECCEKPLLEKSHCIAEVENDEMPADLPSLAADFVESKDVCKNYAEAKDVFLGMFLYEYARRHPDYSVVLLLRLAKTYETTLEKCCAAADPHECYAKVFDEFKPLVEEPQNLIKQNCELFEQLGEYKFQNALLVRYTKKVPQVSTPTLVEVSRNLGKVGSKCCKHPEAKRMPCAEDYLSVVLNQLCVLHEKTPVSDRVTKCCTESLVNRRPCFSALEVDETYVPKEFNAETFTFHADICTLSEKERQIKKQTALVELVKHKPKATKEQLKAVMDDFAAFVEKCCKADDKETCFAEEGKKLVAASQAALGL
light: B4 light
notes: also called AB13351-C1
As to B5, the “Ratio of binding relative to H0L0-Fab” value in experiment [4] was 1.4. In experiment [5], this molecule came in with a Kd of 7.52 nM.

B6: H1.1L4-Fab (Fab, V domains shown)
VH: EVQLVESGGGLVKPGGSLRLSCAASGFTFTNYAMSWVRQAPGQRLEWVSTITSGGSYIYYLDSVKGRFTISRDNAKSTLYLQMNSLRAEDTAVYYCARRKDGNYYYAMDYWGQGTTVTVSS
VL: DIVLTQTPLSLSVTPGQPASISCRASESVDSYGNSFIHWYQQKPGQPPKLLIYRASNLESGIPARFSGSGSRTDFTLKISRVEAEDVGVYYCQQSYEDPWTFGGGTKLEIKR
Turning to B6, the “Ratio of binding relative to H0L0-Fab” value in experiment [1] was found to be 0.94. In experiment [2], this molecule returned a Kd of 1.29 nM.

B7: H1.1L1-Fab (Fab, V domains shown)
VH: B6 VH
VL: DIVLTQSPATLSLSPGERATLSCRASESVDSYGNSFIHWYQQKPGQPPKLLIYRASNLESGIPARFSGSGSRTDFTLTISSLEPEDFAVYYCQQSYEDPWTFGGGTKLEIKR
B7: the “Ratio of binding relative to H0L0-Fab” value in experiment [1] stood at 1.06. The molecule also displayed a Kd in experiment [2] of 1.46 nM.

B8: H5.3L4-Fab (Fab, V domains shown)
VH: EVMLLQSGAEVKKPGASVKVSCKASGFTFTNYAMSWVRQAPGQRLEWVATITSGGSYIYYLDSVKGRFTISRDNAKSTLHLQMNSLRAEDTAVYYCARRKDGNYYYAMDYWGQGTTVTVSS
VL: B6 VL
For the molecule B8, the “Ratio of binding relative to H0L0-Fab” value in experiment [1] is 1.28. The Kd in experiment [2] stood at 1.76 nM.

B9: H1.1L2-Fab (Fab, V domains shown)
VH: B6 VH
VL: B7 VL with A9S, T10S, L13A, P15V, E17D, A19V, L21I, S22T, E83Q, V89T
Regarding B9, the “Ratio of binding relative to H0L0-Fab” value in experiment [1] came to 0.85. Further, in experiment [2], the Kd worked out at 1.17 nM.

B10: H4.2L2-Fab (Fab, V domains shown)
VH: B8 VH with E1Q, M3Q, L5V, A9S, V11L, Q43K, D73E, H80Y, A88T, V93L
VL: B7 VL with A9S, T10S, L13A, P15V, E17D, A19V, L21I, S22T, E83Q, V89T
For the molecule B10, the “Ratio of binding relative to H0L0-Fab” value in experiment [1] worked out at 1.46. This molecule also showed a Kd in experiment [2] of 2.01 nM.

B11: H5.3L2-Fab (Fab, V domains shown)
VH: B8 VH
VL: B7 VL with A9S, T10S, L13A, P15V, E17D, A19V, L21I, S22T, E83Q, V89T
For the molecule B11, the “Ratio of binding relative to H0L0-Fab” value in experiment [1] turned out to be 1.22. Further, the Kd in experiment [2] was determined as 1.67 nM.
